Source: US7563760 (GENETICS INSTITUTE, dated 2009)
Numbering of substitutions follows the chain as printed. Blank lines part the entries; values can stand above or below the binder they belong to.

Tests used:
[1] = molecular target: T1, P-selectin expressed on the surface of CHO cells (CHO:P-selectin cell line) (UniProt P16109 42-830, limits assumed); test: conditioned medium coated on plastic dishes; adhesion of CHO:P-selectin cells
T1 construct: whole, on cells; also called P-selectin expressing CHO cells
T1 sequence (looked up): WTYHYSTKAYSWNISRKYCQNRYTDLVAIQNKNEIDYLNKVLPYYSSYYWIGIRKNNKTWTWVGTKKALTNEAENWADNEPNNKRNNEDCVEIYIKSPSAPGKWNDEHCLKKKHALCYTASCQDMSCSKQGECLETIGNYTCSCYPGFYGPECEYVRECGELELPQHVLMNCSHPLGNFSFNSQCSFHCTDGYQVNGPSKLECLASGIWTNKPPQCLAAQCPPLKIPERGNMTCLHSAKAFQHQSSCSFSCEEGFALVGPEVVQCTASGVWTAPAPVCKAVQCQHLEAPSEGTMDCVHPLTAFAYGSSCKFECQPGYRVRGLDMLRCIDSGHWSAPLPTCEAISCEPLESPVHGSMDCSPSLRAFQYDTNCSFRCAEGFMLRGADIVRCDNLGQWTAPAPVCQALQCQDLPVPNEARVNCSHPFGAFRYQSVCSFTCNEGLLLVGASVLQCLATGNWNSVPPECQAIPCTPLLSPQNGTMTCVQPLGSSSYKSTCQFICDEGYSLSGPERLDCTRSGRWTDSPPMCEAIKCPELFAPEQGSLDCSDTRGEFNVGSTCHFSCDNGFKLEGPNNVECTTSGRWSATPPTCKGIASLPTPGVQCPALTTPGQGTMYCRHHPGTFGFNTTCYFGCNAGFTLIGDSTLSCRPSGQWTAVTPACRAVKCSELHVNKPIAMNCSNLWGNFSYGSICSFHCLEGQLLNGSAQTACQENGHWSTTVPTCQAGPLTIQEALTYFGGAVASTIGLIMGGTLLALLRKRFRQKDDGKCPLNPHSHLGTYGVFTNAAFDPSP
Method: COS cells were co-transfected with the pED.sPSL.T7 plasmid of Example 5(C), the pEA.3/4FT cDNA of Example 2, and a plasmid containing the PACE cDNA as set forth in SEQ ID NO:5. A parallel control co-transfection was done using only the pED.sPSL.T7 plasmid and the pEA.3/4FT plasmid. After 45 hours, conditioned medium from these transfected COS cells was coated onto plastic dishes and binding to CHO:P-selectin cells (Example 4) was determined.

[2] = molecular target: T2, LEC-γ1, chimeric form of P-selectin conjugated to the Fc portion of a human IgGγ1 (human, UniProt P16109 42-771); test: affinity precipitation from 35S-labelled COS membrane lysates
T2 construct: extracellular domain; Built by known methods (Aruffo et al. 1991), made in CHO DUKX cells; also called P-selectin/IgG chimera; P-selectin/Fc chimera; not shown: Fc portion of a human IgGγ1
T2 sequence (looked up): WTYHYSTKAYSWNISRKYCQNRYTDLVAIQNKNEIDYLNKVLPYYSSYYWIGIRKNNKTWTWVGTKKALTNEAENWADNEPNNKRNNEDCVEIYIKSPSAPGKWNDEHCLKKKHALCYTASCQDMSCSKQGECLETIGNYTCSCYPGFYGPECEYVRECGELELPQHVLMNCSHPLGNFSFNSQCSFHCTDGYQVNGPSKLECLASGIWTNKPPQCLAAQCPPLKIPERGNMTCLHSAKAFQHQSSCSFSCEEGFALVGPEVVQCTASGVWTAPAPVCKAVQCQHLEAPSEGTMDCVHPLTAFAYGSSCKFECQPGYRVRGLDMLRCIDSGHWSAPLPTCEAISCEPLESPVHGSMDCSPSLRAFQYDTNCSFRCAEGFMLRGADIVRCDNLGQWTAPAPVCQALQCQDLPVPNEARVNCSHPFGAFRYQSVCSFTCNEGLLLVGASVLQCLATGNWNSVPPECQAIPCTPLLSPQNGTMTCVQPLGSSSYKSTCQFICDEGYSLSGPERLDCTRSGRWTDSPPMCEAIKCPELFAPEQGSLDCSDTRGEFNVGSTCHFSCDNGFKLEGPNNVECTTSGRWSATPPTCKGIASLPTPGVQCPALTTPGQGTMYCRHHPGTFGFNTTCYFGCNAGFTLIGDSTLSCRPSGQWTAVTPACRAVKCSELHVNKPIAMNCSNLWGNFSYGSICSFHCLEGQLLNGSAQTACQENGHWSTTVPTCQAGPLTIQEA
Method: (§1) The labeled cells were washed, incubated with EGTA to loosen them from the dish surface, scraped from the dish, pelleted, and suspended in cold 10 mM PIPES buffer, pH 7.5, containing 100 mM KCl, 3 mM NaCl, 3.5 mM MgCl_2, and protease inhibitors (see above). Membrane extraction then was carried out by sonication, low speed centrifugation, high speed centrifugation, and solubilization in membrane lysis buffer as above, for labeled myeloid cells.
(§2) Affinity Precipitations. Membrane extracts were diluted 1:4 or 1:5 with cell lysis buffer or with TBSC buffer (20 mM TrisHCl, 150 mM NaCl, 2 mM CaCl_2, pH 7.5) supplemented with 5 mg/ml bovine serum albumin (approximately 99%, Sigma). Extracts thus diluted to 0.2-0.25% Triton X-100 were incubated with human IgG_1-Protein A Sepharose with end-over-end mixing at 4° C. overnight. […] The resins were washed 5 or more times in buffer containing 0.1-0.5% Triton X-100 until the radioactivity of the wash supernatants was reduced to background level. […]
(§3) COS cells were cotransfected with cDNAs encoding either PSGL-1 or CD43 and either Fuc-TIII or Fuc-TVII. […] The precipitated products were evaluated by SDS-PAGE/autoradiography following their release by EDTA/EGTA (for selectin mediated binding) or by boiling in SDS (for immunoprecipitations).

[3] = molecular target: T3, chimeric protein comprising the extracellular domain of human E-selectin and the Fc portion of human IgG1 … (human, UniProt P16581 22-556); test: affinity precipitation from 35S-labelled COS membrane lysates (FIG. 29A)
T3 construct: extracellular domain; Built analogously to LEC-γ1; also called soluble E-selectin chimera; immobilized E-selectin; not shown: Fc portion of human IgG1
T3 sequence (looked up): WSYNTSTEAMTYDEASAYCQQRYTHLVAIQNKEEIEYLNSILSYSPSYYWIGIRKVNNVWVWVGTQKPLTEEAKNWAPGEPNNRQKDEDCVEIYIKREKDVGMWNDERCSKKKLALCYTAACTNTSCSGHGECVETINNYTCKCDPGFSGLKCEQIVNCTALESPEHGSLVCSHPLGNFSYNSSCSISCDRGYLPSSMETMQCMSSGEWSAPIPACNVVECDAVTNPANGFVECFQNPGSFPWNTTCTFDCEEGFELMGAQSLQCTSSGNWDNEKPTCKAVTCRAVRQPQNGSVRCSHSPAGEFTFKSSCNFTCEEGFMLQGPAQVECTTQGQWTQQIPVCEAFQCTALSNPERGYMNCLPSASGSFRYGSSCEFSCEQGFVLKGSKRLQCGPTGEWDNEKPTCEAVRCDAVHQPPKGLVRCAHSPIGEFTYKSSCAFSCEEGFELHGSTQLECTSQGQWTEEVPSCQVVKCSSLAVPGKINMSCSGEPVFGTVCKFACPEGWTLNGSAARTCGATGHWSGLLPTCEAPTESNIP
Method: as §1, §2, §3

[4] = molecular target: T4, E-selectin expressed on CHO cells (CHO:E-selectin) (UniProt P16581 22-610, limits assumed); test: plate coated with chimera; adhesion of 3H-labelled CHO:E-selectin cells (FIG. 15)
T4 construct: whole, on cells; also called E-selectin expressing CHO cells; CHO cells which express E-selectin
T4 sequence (looked up): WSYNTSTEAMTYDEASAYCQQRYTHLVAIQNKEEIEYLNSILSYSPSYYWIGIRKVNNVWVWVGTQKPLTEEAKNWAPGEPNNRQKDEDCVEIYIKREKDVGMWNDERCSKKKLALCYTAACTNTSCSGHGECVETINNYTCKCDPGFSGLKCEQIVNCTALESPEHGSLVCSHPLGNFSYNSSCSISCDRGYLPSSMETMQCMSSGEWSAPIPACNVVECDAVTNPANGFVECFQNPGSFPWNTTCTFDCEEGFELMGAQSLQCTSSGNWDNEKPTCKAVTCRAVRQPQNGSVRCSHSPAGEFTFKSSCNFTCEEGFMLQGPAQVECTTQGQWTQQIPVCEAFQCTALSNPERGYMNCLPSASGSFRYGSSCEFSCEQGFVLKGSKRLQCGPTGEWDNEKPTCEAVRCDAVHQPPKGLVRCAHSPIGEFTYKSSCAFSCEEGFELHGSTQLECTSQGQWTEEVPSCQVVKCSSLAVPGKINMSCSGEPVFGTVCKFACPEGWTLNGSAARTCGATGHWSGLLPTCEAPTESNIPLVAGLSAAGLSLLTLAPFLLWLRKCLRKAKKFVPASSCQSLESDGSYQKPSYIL
Method: Quantitative adhesion of CHO:P-selectin, CHO:E-selectin and CHO:L-selectin expressing cells was performed as described in Example 4(c), with the following modifications: COS cell and antibodies were omitted. Instead, 48-well microtiter plates (Costar) were coated for 16 hours at 4° C. with varying quantities of protein A-purified soluble PSGL-1/Fc chimeras. The unbound material was removed and the coated wells were treated with Hank's buffered saline (HBS) with 1 mg/ml BSA and 2 mM CaCl_2 for 1 hour at 4° C. Tritium labeled CHO selectin expressing cells were added and binding quantitated as described in Example 4(c).

B2: recombinant CD43 (pFCD43) from COS cells co-transfected with Fuc-TIII (other, UniProt P16150 20-400, looked up)
chain: STTAVQTPTSGEPLVSTSEPLSSKMYTTSITSDPKADSTGDQTSALPPSTSINEGSPLWTSIGASTGSPLPEPTTYQEVSIKMSSVPQETPHATSHPAVPITANSLGSHTVTGGTITTNSPETSSRTSGAPVTTAASSLETSRGTSGPPLTMATVSLETSKGTSGPPVTMATDSLETSTGTTGPPVTMTTGSLEPSSGASGPQVSSVKLSTMMSPTTSTNASTVPFRNPDENSRGMLPVAVLVALLAVIVLVALLLLWRRRQKRRTGALVLSRGGKRNGVVDAWAGPAQVPEEGAVTVTVGGSGGDKGSGFPDGEGSSRRPTLTTFFGRRKSRQGSLAMEELKSGSGPSLKGEEEPLVASEDGAVDAPAPDEPEGGDGAAP
modifications: co-expressed with Fuc-TIII
notes: Membrane detergent extract; also called recombinant leukosialin
binding result [2]: no binding
binding result [3]: no binding

B4: 148.Fc, P-selectin ligand-IgG chimera with amino acids 42-189 of SEQ ID NO:2 (Fc fusion)
chain: QATEYEYLDYDFLPETEPPEMLRNSTDTTPLTGPGTPESTTVEPAARRSTGLDAGGAVTELTTELANMGNLSTDSAAMEIQTTQPAATEAQTTPLAATEAQTTRLTATEAQTTPLAATEAQTTPPAATEAQTTQPTGLEAQTTAPAAM
modifications: tyrosine residues of the anionic region (46, 48, 51 of SEQ ID NO:2) are the major site of sulfation; glycosylated, co-expressed with 3/4FT
notes: also called pED.148.Fc product; pED.149.Fc; not shown: NotI junction/linker of pED.Fc; Fc region of a human IgG1 from pED.PSL.Fc
binding result [4]: binds

B5: FFFE.148.Fc (Fc fusion)
chain: B4 chain with Y5F, Y7F, Y10F, D11E
modifications: glycosylated, co-expressed with 3/4FT
notes: also called pED.FFFE.148.Fc product; not shown: NotI junction/linker of pED.Fc; Fc region of a human IgG1
binding result [4]: binds

The next lines start with the values.

fold increase in bound CHO:P-selectin cells against P-selectin ligand not co-expressed with PACE [1]: ~2 fold
B1: sPSL.T7 co-expressed with 3/4FT and PACE (PACE-cleaved soluble P-selectin ligand) (ligand, not shown: large carriers)
chain: QATEYEYLDYDFLPETEPPEMLRNSTDTTPLTGPGTPESTTVEPAARRSTGLDAGGAVTELTTELANMGNLSTDSAAMEIQTTQPAATEAQTTPLAATEAQTTRLTATEAQTTPLAATEAQTTPPAATEAQTTQPTGLEAQTTAPAAMEAQTTAPAAMEAQTTPPAAMEAQTTQTTAMEAQTTAPEATEAQTTQPTATEAQTTPLAAMEALSTEPSATEALSMEPTTKRGLFIPFSVSSVTHKGIPMAASNLSV
modifications: glycosylated; co-expressed with 3/4FT
notes: also called PACE-cleaved P-selectin ligand; CP/PSL-T7 (R4.1) product

binding result [2]: no binding
binding result [3]: no binding
B3: recombinant CD43 (pFCD43) from COS cells co-transfected with Fuc-TVII (other, UniProt P16150 20-400, looked up)
chain: B2 chain
modifications: co-expressed with Fuc-TVII
notes: as for B2
